One block for each binder: values may come before it.
Columns and labels:
Settings in all cases: both partners purified
[1] = biological target: T1, ASB7-Elongin B-Elongin C ternary complex (wild-type ASB7, residues 11-318) (human, UniProt Q9H672 11-318; Q15370 1-104; Q15369 17-112); assay: ITC; peptide in the syringe titrated into ASB7-Elongin B/C in the cell; MicroCal PEAQ-ITC, 16 °C, 20 mM Tris-HCl pH 7.5, 150 mM NaCl; 39–156 μM protein, 0.8–4 mM peptide; repeated three times, mean ± SD
T1 construct: human ASB7, residues 11-318; human Elongin B, residues 1-104; also called ASB7-Elongin B/C; WT; source: E. coli BL21 (DE3), co-expressed, purified (Ni-NTA, Superdex 200); not shown: SUMO, N-terminal, cleaved; copies: + +

[2] = biological target: T2, ASB7-Elongin B-Elongin C ternary complex (human, UniProt Q9H672 11-318; Q15370 1-104; Q15369 17-112); assay: pull-down; GST or GST-fusion degron peptides (~50 µg) on glutathione magnetic beads, ~30 µg purified ASB7-Elongin B/C added; 20 mM Tris-HCl pH 7.5, 400 mM NaCl, 2 mM β-mercaptoethanol; 4 °C; glutathione elution, Coomassie-stained SDS-PAGE
T2 construct: ASB7, human, residues 11-318; Elongin B, human, residues 1-104; ASB7 cloned into pET28-MKH8SUMO (Addgene plasmid #79526 is the vector); Elongin B and C in pCDFDuet-1; tag cleaved with TEV protease; also called ASB7-Elongin B/C; wild-type ASB7; source: E. coli BL21 (DE3), co-expressed, purified (Ni-NTA, Superdex 200); not shown: SUMO, N-terminal, cleaved; copies: + +

[3] = biological target: T2, ASB7-Elongin B-Elongin C ternary complex; assay: ITC; peptide (0.8–4 mM) titrated into the ASB7 complex (39–156 µM); 16 °C; 20 mM Tris-HCl pH 7.5, 150 mM NaCl; MicroCal PEAQ-ITC
Target sequence in this assay (Q9H672 11-318, chain 1 of 3): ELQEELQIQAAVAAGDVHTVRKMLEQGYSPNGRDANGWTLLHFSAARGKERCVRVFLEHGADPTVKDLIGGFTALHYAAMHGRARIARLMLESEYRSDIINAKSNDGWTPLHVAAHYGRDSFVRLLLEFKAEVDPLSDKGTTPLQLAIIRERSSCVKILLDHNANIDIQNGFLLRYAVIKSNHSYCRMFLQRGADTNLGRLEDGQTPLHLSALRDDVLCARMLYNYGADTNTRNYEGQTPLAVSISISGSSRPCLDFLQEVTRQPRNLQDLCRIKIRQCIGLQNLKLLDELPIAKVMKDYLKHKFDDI
Target sequence in this assay (Q15370 1-104, chain 2 of 3): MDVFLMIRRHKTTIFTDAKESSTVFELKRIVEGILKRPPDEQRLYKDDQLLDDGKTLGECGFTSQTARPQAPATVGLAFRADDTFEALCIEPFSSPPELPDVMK
Target sequence in this assay (Q15369 17-112, chain 3 of 3): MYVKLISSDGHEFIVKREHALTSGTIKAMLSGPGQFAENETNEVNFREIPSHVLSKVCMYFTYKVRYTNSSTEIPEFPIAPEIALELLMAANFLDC

T1 sequence (Q9H672 11-318, chain 1 of 3): as the sequence (Q9H672 11-318, chain 1 of 3) above
T1 sequence (Q15370 1-104, chain 2 of 3): as the sequence (Q15370 1-104, chain 2 of 3) above
T1 sequence (Q15369 17-112, chain 3 of 3): as the sequence (Q15369 17-112, chain 3 of 3) above

stoichiometry N [1]: 1.27
B1: CEP152 degron peptide (peptide)
peptide: ELEKAKQECQDLKGKLEKCCRH
notes: stretch of CEP152, a reported ASB7 substrate; source: synthetic peptide (Shanghai Apeptide Co., Ltd.)

binding result [2]: binds
B2: GST-fused LZTS1-degron (peptide)
chain: VLQLQQEKRQLRQELESLMKEQDLLETKLRSYEREKTSFG
notes: degron stretch of LZTS1; pGEX vector; also called GST-tagged LZTS1; not shown: GST, N-terminal, kept

binding result [2]: binds
B3: GST-fused CCDC17 degron peptide (peptide)
chain: GMSRLFGLEQEIRELQAEAGRTRGALEVLGARIQELQAE
notes: degron stretch of CCDC17; pGEX vector; also called GST-tagged CCDC17; not shown: GST, N-terminal, kept

Kd [3]: 1300 nM
B4: DDA3-degron 23-residue peptide (peptide)
peptide: SPEKLEEILDEANRLAAQLEQCAL
notes: DDA3; the region covering residues 70-93 was named as the potential degron and a 23-residue peptide was synthesized; residues 70-93 are 24 residues, the peptide is said to have 23; also called DDA3 residues 70–93; source: synthetic peptide (Shanghai Apeptide Co., Ltd.)

Kd [1]: 700 nM
stoichiometry N [1]: 0.71
B5: LZTS1 degron peptide Y19R (peptide)
peptide: RQELESLMKEQDLLETKLRSRER
notes: numbers count on: the degron, E1 = third letter of the 23-residue peptide; source: synthetic peptide (Shanghai Apeptide Co., Ltd.)

stoichiometry N [1]: 1.32
B6: DDA3 degron peptide (peptide)
peptide: PEKLEEILDEANRLAAQLEQCAL
notes: stretch of DDA3; the text names the region as residues 70-93 (24 residues) and the peptide as 23 residues; also called DDA3 peptide; source: synthetic peptide (Shanghai Apeptide Co., Ltd.)

binding result [2]: binds
B7: GST-fused GIGYF1 degron peptide (peptide)
chain: SSAGPPGDLEDDEGLKHLQQEAEKLVASLQDSSLEEEQFT
notes: degron stretch of GIGYF1; pGEX vector; also called GST-tagged GIGYF1; not shown: GST, N-terminal, kept

Kd [1]: 1100 nM
stoichiometry N [1]: 0.76
B8: CCDC17 degron peptide (peptide)
peptide: LEQEIRELQAEAGRTRGALEVLG
notes: stretch of CCDC17, a reported ASB7 substrate; also called CCDC17 peptide; source: synthetic peptide (Shanghai Apeptide Co., Ltd.)

binding result [2]: binds
B9: GST-fused CLIP2 degron peptide (peptide)
chain: SGPGAQQKEIGELKAVMEGIKMEHQLELGNLQAKHDLET
notes: degron stretch of CLIP2; pGEX vector; also called GST-tagged CLIP2; not shown: GST, N-terminal, kept

Kd [1]: 900 nM
stoichiometry N [1]: 0.91
B10: LZTS1 degron peptide, 21 residues (RQELESLMKEQDLLETKLRSY) (peptide)
peptide: RQELESLMKEQDLLETKLRSY
notes: LZTS1 degron shortened by two residues at the C-terminus; source: synthetic peptide (Shanghai Apeptide Co., Ltd.)

Kd [1]: 700 nM
stoichiometry N [1]: 0.68
B11: LZTS1 degron peptide, 21 residues (ELESLMKEQDLLETKLRSYER) (peptide)
peptide: ELESLMKEQDLLETKLRSYER
notes: LZTS1 degron shortened by two residues at the N-terminus; source: synthetic peptide (Shanghai Apeptide Co., Ltd.)

binding result [2]: binds
B12: GST-fused CEP152 degron peptide (peptide)
chain: GHCFQELEKAKQECQDLKGKLEKCCRHLQHLERKHK
notes: degron stretch of CEP152; pGEX vector; also called GST-tagged CEP152; not shown: GST, N-terminal, kept

Kd [1]: 700 nM
stoichiometry N [1]: 0.71
B13: CLIP2 degron peptide (peptide)
peptide: EIGELKAVMEGIKMEHQLELGN
notes: stretch of CLIP2, a reported ASB7 substrate; source: synthetic peptide (Shanghai Apeptide Co., Ltd.)

Kd [1]: 1000 nM
stoichiometry N [1]: 0.78
B14: GIGYF1 degron peptide (peptide)
peptide: EDDEGLKHLQQEAEKLVASLQDS
notes: stretch of GIGYF1, a reported ASB7 substrate; source: synthetic peptide (Shanghai Apeptide Co., Ltd.)

Kd [1]: 5100 nM
stoichiometry N [1]: 1.12
B15: LZTS1 degron peptide, 17 residues (ELESLMKEQDLLETKLR) (peptide)
peptide: ELESLMKEQDLLETKLR
notes: LZTS1 degron, positions E1 to R17 of the degron numbering; also called 17-residue degron; source: synthetic peptide (Shanghai Apeptide Co., Ltd.)

— PMC11263391 (Nature Communications, 2024)
